# Laboratory results published in the DeepSol protein solubility set.
# Assay: soluble on expression in E. coli; label from the status in PepcDB or PDB records
row,Sequence,soluble on expression in E. coli
1,MAHHHHHHMAKTVDNAALLAEIDQLRRLIAEKEALITPDGGSLSKKSKKKSQMNMVETEPVQGCRDFPPETMRLRKYLFDVFHSTARKFGFEEYDSPVLESEELYIRKAGEEITEQMFNFITKGGHRVALRPEMTPSLARQLLAKGRSLLLPAKWYSIPQCWRYEAITRGRRREHYQWNMDIIGVKSVSSEVELVCAACTAMQSLGLSSKDVGVKINSRKILQTVVEQAGVSADKFAPVCVIVDKMEKLPREEVVAQLAAIGLESNVVDAITSTLSLKTIDEIAQRIGEEHEAVRELRDFITQIEAYGFGDWVIFDASVVRGLAYYTGIVFEGFDRDGNFRALCGGGRYDNLLTTYGSPTAVPCVGFGFGDCVIVELLNEKKLLPELHHVVDDLVIPFDETMRPHALSILRRLRDAGRSADIVFDKKKVVQAFNYADRIGALRAVLVAPDEWARGEVRVKMLREGAGREEGANERGIVLPVDKIV,not soluble
2,MAHHHHHHMANAELVDAGCFITQMNELLLIDPLYLNCAMTNYCNSYLSGKEELLPRERLNGIYFKNAKPGLWSSFAIRENSQAHLKKTAKQETETDAANRNDKNTYNNIRNEMVLSFVCFNNTNYMHQYLTVEEVDKLHWERMEPSEGHPGVGPTDKCSSTVDGDSKNEKVANFHNDRSELLPLENYFTNVLTIESGQAGLFCIDSIKNSADLLFQKHGMKNISSREQLDILFNQNMNDLYPWFDQICNLTMTSSVAVVDFMGMPIGCVCLSSSDCVVNYLCEVVRDEVTDEVWAIRVNFLAPLK,not soluble
3,MAHHHHHHMANNNMDDINLECENDNDNKISSEKRLVDEIIENNIEEIKKKEKDNKEKDNKEKDNKEKDIMFNIKNGLCDLEKTLDGEGYAYSNLTCRKKGIDFIPKSITRYIHLKYINLSHNNINDLVHLYFLPNIIFLDVSYNMLKEIVELKKEYLKNCIYINLSHNLISHMNNIFLKNLLEFNISYNTINNINIYISNTIRILNLSNNNIKNINFKNKLNNLLDLDISFNPIENLDFHTLMPNLVVLRINDNSTISMDKLNNLNNFKCLQSLFMQNYLYFKDISYKDVKEILLQNSKDIHLLKFNGNRLNKKTDHIEQADVNK,soluble
4,MAHHHHHHMARDYDAGYKLLFAMPEMMRDLLREFIRSDWLRALDYSTLERVSGNYVADNMRQRASDMVWRVDAGDPWGHLYVLLEFQSTIDRYMAPRMAAYTALLHQELVRAGQVLPDRRVPAALSIVLYNGDTPWSACTNIRDVVVSLPNGLAACQLHQQHTLLDINRLSEAQLPDDNLAALLFRIERAADYDTVVSLMIECRMRLRHEPKLKLAFAKTFAALLCGQRGSVLTPDQVFQLMEVDMQVVGANLQRFTHKLREEARQEGEARMLQKLLAERFGSLHASVVQRIEIATPEELERWGIQLLRAEVIEDVFRA,soluble
5,MAHHHHHHMASLTVPAHVPSAAEDCEQLRSAFKGWGTNEKLIISILAHRTAAQRKLIRQTYAETFGEDLLKELDRELTHDFEKLVLVWTLDPSERDAHLAKEATKRWTKSNFVLVELACTRSPKELVLAREAYHARYKKSLEEDVAYHTTGDHRKLLVPLVSSYRYGGEEVDLRLAKAESKILHEKISDKAYSDDEVIRILATRSKAQLNATLNHYKDEHGEDILKQLEDGDEFVALLRATIKGLVYPEHYFVEVLRDAINRRGTEEDHLTRVIATRAEVDLKIIADEYQKRDSIPLGRAIAKDTRGDYESMLLALLGQEED,soluble
6,MAHHHHHHMATIGMFNEEGENVDLYIPRKCHATTTLIEAHDHAAVQISIANVGPNGVINGTTTTLCIAGYLRSQGESDHAINHITIDRGIMRIKTGKPKRASKSKSKKPAAKGAAAGAAAQKGARPPAQKGARPPAQKGARPPAQKGARPPAQKGARPPAQKGAAPARKNRA,soluble
7,MAHHHHHHMCDTANEADGKKLNKKAKSISVVKFKDKEKKKFVSLSSKEETSVQDLPLGCPVCYVPLTVDFNLLNQVEEQDEEEMIVCKEETTYINKSFINRINTNEYRSSTKIEAVFEEVKNVIHTTDDKCLIFSQYCSMLDLIEYHLKKHNIICSKLLGYMPMVSRNNILYNFNEDKHLRVLLISLKAGGEGLNLQVANRIFIVDPWWNPAAELQAIQRAHRIGQTKTVYATRFIIENTVEEKIVQLQNKKQLVFDCTIGDSGNAMQKLTKEDLAFLFHA,not soluble
8,MAHHHHHHMCEKDDITVNEEILQKAQEFQVENEKDIKMKKLKPITEGLLKPEVDLLQISERGSRGRVKICNVLNVPRSEKEYNNNNSDKVENKYIGKIITVCGWSKAIRKQGGGRFCFVNLNDGSCHLNLQIVVNQCIENYEKLLKCGAGCCFRFTGELIISPVQNDNNKKGLLKENVELALNNNDIHNFEIYGENLDPQKYPLSKKNHGKEFLREVAHLRPRSYFISSVIRIRNSLSIATHLFFQSRGFLYIHTPLITTSDCEGGGEMFTVTTLLNENGDIRSIPRINLKNKKKEKREDILNEKNGKKDHMNDSLNNNTCNNNNNNGNSSSSNIVSSPQYEDNYLIDYKKDFFSKQAFLTVSGQLSLENLCSSMGDVYTFGPTFRAENSHTSRHLAEFWMIEPEIAFADLYDNMELAEAYIKYCIDYVLNNNFHDIYYFEENVETNLIKRLKNILNEDFAKITYTNAIEILQNYSDSFEVKVEWGMDLQSEHERFIAEKIFKKPVIVYNYPKDLKAFYMKLNEDNKTVAAMDVLVPKIGEVIGGSQREDNLERLDKMIKEKKLNIDSYWWYRQLRQYGSHPHAGFGLGFERLIMLVTGVDNIKDTIPFPRYPGHAEF,soluble
9,MAHHHHHHMDSTYKEPSSAAVPTSYAVLSLPSKATMRRKGYNPDEVNYNGGLATHPLATWKTFSLPDGCTYKDAVSAVQTANAKPWGPIKIRLNFSDGRYEQFERVAPSVMDSLQSTTTYSPNDAFKAETLSLSTMRRAQQQPRLRPLVDERGHHLSNKPIPRTFAPEELYKNCPPPVLSQPGYDFTPISYNTFLLNPQDPPHGVRNVQSNFMHSSCDYRPRSYLRPEQATGTSHASRHCHCNEVFQVGDHTMDFACEGTTVDHRNRLVKKDYSPVGTLKANSSIVGRRHARKPRFGCTGVADSQTVAAAVAPAADEETA,soluble
10,MAHHHHHHMDTDKIKKRINAYNQDGIRNSALAIILCHRYEYPHLLLLQNIESQTYHLLSGKYKSWEKPREVLKKKLQKYVNQIRDMHFGTSHFNTEEKETEDPIEIGEFLGEWWKTQFNSVYLPYLPAHITRPKEYIRLYQVTLTSRCIFHLPPGFTLKALPLFDLSTCGVAIGGLTSVLSRFKLHCMVPVEE,not soluble
11,MAHHHHHHMDVKLGTIISRFTFTLPSLYDDGRDDYDATVSSPDDAATEESCGVAFTSGTHCDEARKTPKTTQAGSRSHVARFGAPASPTEKLDITGAYAFVSHGGAASSASLAAPSSPPPLLGRAAARGDRNNSTVAAPQHDVGDRGGGAVRYGTSLHLPDLVQLAAHAWNVELHCGSTGAASHCVLRLPPFVLGSTLYRGPVVYVLASGVVRMATHGSVAATELLARRVRDALHEACKPLAVRRAAREELLLMRAVLEDSLSDMLEDEGGEEGPARHLCTAVLKAEARLPSSGVSLSTALAADTAMSSQHGRRAAFGSSAAAARIGPMARDKAGHGLPTLVSTPSVLSARGCKIDFLQAVATPRWDEIVGLRASLFAPASAAPGSENSGGGGVAKADRDAEGAPRVSVRRASVNVRGDAPMEWWRWYLGVQADDHGVGGGDGSGAARRGGGAPSAAAANSEEPFPGDCSGVPLLGSWLSGDASEGGNADARSSNKTTGFWTCAGYADASPENAASFVHFLQRRRALLAHHVASFKLRRQATQNSLQILLDWRTATPPTPPAPPAPLSAAAAPLMGRPPLARALVGHPMAVAQPLPDSGTPSVPAAPTRTNISGNTWVTEASAANFFMESTFIAESAAPFELESVRMPTDRMSSADPALPVSMALGDRNVANPCGSTALAPDSGCGSMSALLEPSVGHSVLRYDSSSSKDDRTAAKAAPEKRMRGVAAAQASAANRDEAASAAMEHVTCLIHRTGRVQMTAASELALRQMCAMLLIPFLVATAEVEL,not soluble
12,MAHHHHHHMEEHPKILSIAGSDSCAGAGMQADLKTAMSLGCHCCTILVVLTAQNTKEVKSIIEVDEKFIVEQLDAIFTDITIEVVKLGVLYSKKIISLIHNYITNINKMREKKLLVVFDPVFVSSSGCMLVENLDYVKYALDLICPLSCIITPNFYECKVILEALNFNIDINNMRTSDLCKLVTEKLNINACLFKSCNIDINTEDENKLYAVDHLCIKNDNDYDTKIKQNISYDVYKLKSKRNPQKDIHGTGCTLSTAISCFLSKKYDIIQACIESKKYIYNCINYAYDLGSKSQGLNHLKAAQHLTDFRELQVIKVD,soluble
